# Measured values: the RNAGym collection of RNA variant scans (doi:10.1073/pnas.2313332121)
# Fewer inactive variants are shown than the library holds.
# B1: TPR 5TU (parent)
# chain: GGAUCUUCUCGAUCUAACAAAAAAGACAAAUCUGCCACAAAGCUUGAGAGCAUCUUCGGAUGCAGAGGCGGCAGCCUUCGGUGGCGCGAUAGCGCCAACGUUCUCAACUAUGACACGCAAAACGCGUGCUCCGUUGAAUGGAGUUUAUCAUG
# Variants of: B1
# Experiment: polymerase ribozyme fitness, log enrichment relative to wild type (log ratio); higher = more active; in vitro selection for triplet polymerase activity
# Outline: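 Streptavidin-bead capture of gel-excised extended constructs, followed by RT-PCR, closed a single triplicate in vitro selection round. That round began by annealing PCR-built, transcribed mutant libraries of each subunit of a heterodimeric triplet polymerase ribozyme with a biotinylated primer, the partner subunit and triplets, then incubating them frozen at −7 °C. After Illumina sequencing of inputs and outputs, genotypes needed ≥10 input reads and ≥1 read per output. Fitness is the base-2 logarithm of genotype enrichment over wild-type enrichment, using inverse-variance-weighted replicate averages.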
row,Variant,polymerase ribozyme fitness (log ratio)
1,C5U C18U C76G C105U U148A,≤ -4.2
2,C5A C27A C87A U109A G126A,≤ -4.2
3,U6G A20C A22G A26C C57A C87A A120G,≤ -4.2
4,C5G C54A G58C A73G C79A C87U C116A A138G,≤ -4.2
5,U6A G58C G94A,-0.942
6,U4C A60U G74A C93U A106U A107U A150C,≤ -4.2
7,U6A A16C C27U U31G A52C C54G C118U,≤ -4.2
8,C5A C10U A41C A49C U139G U151G,≤ -4.2
9,U4C G50C U56A G74A C87A G88U C116U,≤ -4.2
10,U6A U13A U61A C76A A91G,≤ -4.2
11,U4C A12U A21G G59A C85G G124U,-2.83
12,C5U U56A C57A C85G,-0.724
13,C5A A28G G34C G74A U82A G86A C93A A97C,≤ -4.2
14,U6A A91C,≤ -4.2
15,C5U A23G C32A C57G G59A C87G C95A U134C,≤ -4.2
16,U4C A49U G94A A106G C123U,-1.94
17,U6A C18A A21U U56G G68A A91U G128C U139A G143A,≤ -4.2
18,C5G A39U C57A G59U G83U C103G C116U,≤ -4.2
19,U4G A12U A39C G62A C76U C87G A91U,≤ -4.2
20,C5G C54A G65C A66G C85U,≤ -4.2
21,U6A A60G C76A U144C,-0.452

row,Variant,polymerase ribozyme fitness (log ratio)
1,U6A G86U,-1.41
2,U6C G83A C114U,-2.57
3,U6A A29U G81A G92C C114U,≤ -4.2
4,C5U A16C A17U C27U A49C U55G,≤ -4.2
5,C5U G141C,-0.459
6,U4C C10A U15G G62C A64U G80A C93A C116A U127G C131U G141U U145A,≤ -4.2
7,U6C U31C A52U G58A C95G U145A,-2.9
8,C5U A91U,-3.99
9,U4C C5U A23C A47C C79A C85G U90C G117U G152U,≤ -4.2
10,C5G C54G U56G C95U C125U C129A G133U,≤ -4.2
11,C5U G46A U61G,-4.13
12,U4G A39G A142G,-3.9
13,U6A G83C,-0.841
14,U6A A21U U31A G74A,≤ -4.2
15,C5A A16C A19U U61A,-2.61
16,U6G A16U C18U G67C G88C,≤ -4.2
17,C5A U7C G92C U139G,-1.27
18,U6G A20U C43U A47U G59A G65C A73C G88U C96A A142G,≤ -4.2
19,C5U U9C A29C C93U C103U G126U,≤ -4.2
20,C5G A41C G46C C57G A60U G68C U135A G141A,≤ -4.2
21,U4C U9A A41C G48C C51A G68A G83C,≤ -4.2

row,Variant,polymerase ribozyme fitness (log ratio)
1,C5A U13C C38U A121G U127C,-4.07
2,U4A U55A A64C,≤ -4.2
3,U4G A73C G92C,-4.15
4,C5G A20G C75U C87U A119G A142G,-3.16
5,U4C A52U U82G C96A,-3.56
6,U4G U56G U144A,-1.19
7,U6G A17U A21U A49C C51U C79U G84A C114G,≤ -4.2
8,U6G A21C C75U U144A,-0.201
9,U6C A66C C72A U77C U82A U111C G126A,≤ -4.2
10,C5A A17U U56A U127A,-4.16
11,C5U A73G C85G,-0.907
12,U6G A19G C38G C96A A106U,-3.84
13,C5G A52G G80A,-1.81
14,U6A C54A C93G,≤ -4.2
15,C5G A19U A91G A113G,≤ -4.2
16,C5G A39G C51U A106G,≤ -4.2
17,C5A G11A G84A C95A C103U C116U,-1.5
18,U4G C27G A40U C116G A137C,≤ -4.2
19,U6C C10A U13A C35G C36G A37G G81U G83C,≤ -4.2
20,U6A A41C G50C G84A A119G,-3.27
21,U6A U13G C96A C105U,-2.15

row,Variant,polymerase ribozyme fitness (log ratio)
1,C5A C18U G86U,-1.4
2,U6A U44A C57G G70A G80A C85U G126U C131G,≤ -4.2
3,U4G G58A,0.794
4,C5A G92C,-1.76
5,C5G G50U G81C G92C G143A,-2.74
6,U4C U6G G74C G80C G92U C103G A106U,≤ -4.2
7,U6C G42U U77G C87U A122U,≤ -4.2
8,C5G C10G A26C C93U A106G G140U,≤ -4.2
9,C5A A26U C35G A39U C76U C85U C118U A119C,-4.09
10,U4G U31A C54U G86C G92U U148G,≤ -4.2
11,U4G U15G A30G A41U G46U C69G C76U C93G G143C,≤ -4.2
12,U6C G48C G65A U78A G80A G88C A106G U127C G152U,≤ -4.2
13,U6C G124C C129A,-4.16
14,U6A A47C G59U G81A C95G G141C,≤ -4.2
15,U6C C38U C75G U82A A107G A120G G133A U134A,≤ -4.2
16,U6A A19C U56A G83A G124C,-1.45
17,C5U C93G,-3.16
18,C5U C93U,0.375
19,C5G A41C U55A G58A A60G,-1.54
20,C5A C54U A73G A119G G136A,-0.371
